Experimental data taken from article PMC7644731.

Tests used:
Assay in all cases: double-filter binding
[1] = tested on: Mini-Ph EH; conditions: apparent Kd, n=5; Filter binding: 60 mM KCl, 12 mM Hepes pH 7.9, 0.24 mM EDTA, 4% glycerol, 0.02 nM probe, 1 h at room temperature
[2] = tested on: Mini-Ph-ML; conditions: apparent Kd, n=3; Filter binding: 60 mM KCl, 12 mM Hepes pH 7.9, 0.24 mM EDTA, 4% glycerol, 0.02 nM probe, 1 h at room temperature
[3] = tested on: Mini-PhΔSAM; conditions: apparent Kd, n=4; Filter binding: 60 mM KCl, 12 mM Hepes pH 7.9, 0.24 mM EDTA, 4% glycerol, 0.02 nM probe, 1 h at room temperature
[4] = tested on: Mini-Ph; conditions: apparent Kd, n=10; Filter binding: 60 mM KCl, 12 mM Hepes pH 7.9, 0.24 mM EDTA, 4% glycerol, 0.02 nM probe, 1 h at room temperature

150-bp DNA probe
Kd [1]: 706 nM | Kd [2]: 190 nM | Kd [3]: 990 nM | Kd [4]: 37 nM
